The array DNA melting data of Ke et al.

Test: melting temperature; melt of duplexes
Details: sodium 0.0675 M; strand 1 µM

Substance	Tm [°C]
CGACGTGCTGAATGTGCTG+CAGCACATTCGGCACGTCG ((((((((.((((((((((+)))))))))).))))))))	60.6
CGACGTGCGTCATGTGCTG+CAGCACATCAAGCACGTCG ((((((((.(.((((((((+)))))))).).))))))))	52.6
CGACGTGCCTCATGTGCTG+CAGCACATGGCGCACGTCG ((((((((..(((((((((+)))))))))..))))))))	52.5
CGACGTGCCATATGTGCTG+CAGCACATCCTGCACGTCG ((((((((...((((((((+))))))))...))))))))	47.7
CGACGTGCCGCATGTGCTG+CAGCACATTTGGCACGTCG (((((((((..((((((((+))))))))..)))))))))	53.9
CGACGTGCACAATGTGCTG+CAGCACATACCGCACGTCG ((((((((...((((((((+))))))))...))))))))	44.6
CGACGTGCGCTATGTGCTG+CAGCACATCGAGCACGTCG ((((((((.(.((((((((+)))))))).).))))))))	53.1
CGACGTGCCGGATGTGCTG+CAGCACATGTTGCACGTCG ((((((((...((((((((+))))))))...))))))))	48.1
CGACGTGCCGCATGTGCTG+CAGCACATAATGCACGTCG ((((((((...((((((((+))))))))...))))))))	47.9
CGACGTGCGTAATGTGCTG+CAGCACATGGAGCACGTCG ((((((((...((((((((+))))))))...))))))))	60.7
CGACGTGCTTTATGTGCTG+CAGCACATCATGCACGTCG ((((((((.(.((((((((+)))))))).).))))))))	49.2
CGACGTGCAATATGTGCTG+CAGCACATGACGCACGTCG ((((((((...((((((((+))))))))...))))))))	48.2
CGACGTGCCCTATGTGCTG+CAGCACATATCGCACGTCG ((((((((..(((((((((+)))))))))..))))))))	48.1
CGACGTGCGTTATGTGCTG+CAGCACATCCAGCACGTCG ((((((((...((((((((+))))))))...))))))))	49.6
CGACGTGCTCAATGTGCTG+CAGCACATGAGGCACGTCG ((((((((...((((((((+))))))))...))))))))	53
CGACGTGCCGTATGTGCTG+CAGCACATACGGCACGTCG (((((((((((((((((((+)))))))))))))))))))	66.2
CGACGTGCTGCATGTGCTG+CAGCACATGCGGCACGTCG ((((((((.((((((((((+)))))))))).))))))))	63
CGACGTGCGGCATGTGCTG+CAGCACATATGGCACGTCG ((((((((...((((((((+))))))))...))))))))	49.5

Substance	Tm [°C]
CGACGTGCCGCATGTGCTG+CAGCACATCAGGCACGTCG (((((((((..((((((((+))))))))..)))))))))	55.5
CGACGTGCCGCATGTGCTG+CAGCACATCATGCACGTCG ((((((((...((((((((+))))))))...))))))))	48.6
CGACGTGCTTGATGTGCTG+CAGCACATAATGCACGTCG ((((((((.(.((((((((+)))))))).).))))))))	52.1
CGACGTGCTGGATGTGCTG+CAGCACATCCTGCACGTCG ((((((((.((((((((((+)))))))))).))))))))	61.2
CGACGTGCCCAATGTGCTG+CAGCACATCGGGCACGTCG ((((((((((.((((((((+)))))))).))))))))))	58.9
CGACGTGCAGTATGTGCTG+CAGCACATTACGCACGTCG ((((((((...((((((((+))))))))...))))))))	52.1
CGACGTGCACCATGTGCTG+CAGCACATTCGGCACGTCG ((((((((...((((((((+))))))))...))))))))	42.6
CGACGTGCGCAATGTGCTG+CAGCACATGCGGCACGTCG ((((((((...((((((((+))))))))...))))))))	56.3
CGACGTGCCCGATGTGCTG+CAGCACATCCCGCACGTCG ((((((((..(((((((((+)))))))))..))))))))	51.9
CGACGTGCTGTATGTGCTG+CAGCACATGAAGCACGTCG (((((((((..((((((((+))))))))..)))))))))	54.9
CGACGTGCGTAATGTGCTG+CAGCACATAAAGCACGTCG ((((((((.(.((((((((+)))))))).).))))))))	55
CGACGTGCCGGATGTGCTG+CAGCACATCCAGCACGTCG ((((((((.((((((((((+)))))))))).))))))))	59
CGACGTGCCGCATGTGCTG+CAGCACATGGGGCACGTCG (((((((((.(((((((((+))))))))).)))))))))	62.6
CGACGTGCCTCATGTGCTG+CAGCACATGCCGCACGTCG ((((((((..(((((((((+)))))))))..))))))))	51.4
CGACGTGCCTTATGTGCTG+CAGCACATCTGGCACGTCG (((((((((..((((((((+))))))))..)))))))))	53.7
CGACGTGCGACATGTGCTG+CAGCACATGGGGCACGTCG ((((((((..(((((((((+)))))))))..))))))))	58.4
CGACGTGCTAAATGTGCTG+CAGCACATAGTGCACGTCG ((((((((...((((((((+))))))))...))))))))	45.2
CGACGTGCTATATGTGCTG+CAGCACATGAAGCACGTCG (((((((((..((((((((+))))))))..)))))))))	53.2
